{"source": "patent US20040265915A1", "about": "“Method to identify regulators of cellular activation using Bcl10” (priority 2003, published 2004)", "molecules": {"B1": {"name": "conalbumin: conalbumin protein, specific antigen loaded on CH12 B cells to stimulate D10 T cells (protein, UniProt P02789 20-705, looked up)", "Ovotransferrin": "APPKSVIRWCTISSPEEKKCNNLRDLTQQERISLTCVQKATYLDCIKAIANNEADAISLDGGQAFEAGLAPYKLKPIAAEVYEHTEGSTTSYYAVAVVKKGTEFTVNDLQGKTSCHTGLGRSAGWNIPIGTLLHRGAIEWEGIESGSVEQAVAKFFSASCVPGATIEQKLCRQCKGDPKTKCARNAPYSGYSGAFHCLKDGKGDVAFVKHTTVNENAPDQKDEYELLCLDGSRQPVDNYKTCNWARVAAHAVVARDDNKVEDIWSFLSKAQSDFGVDTKSDFHLFGPPGKKDPVLKDLLFKDSAIMLKRVPSLMDSQLYLGFEYYSAIQSMRKDQLTPSPRENRIQWCAVGKDEKSKCDRWSVVSNGDVECTVVDETKDCIIKIMKGEADAVALDGGLVYTAGVCGLVPVMAERYDDESQCSKTDERPASYFAVAVARKDSNVNWNNLKGKKSCHTAVGRTAGWVIPMGLIHNRTGTCNFDEYFSEGCAPGSPPNSRLCQLCQGSGGIPPEKCVASSHEKYFGYTGALRCLVEKGDVAFIQHSTVEENTGGKNKADWAKNLQMDDFELLCTDGRRANVMDYRECNLAEVPTHAVVVRPEKANKIRDLLERQEKRFGVNGSEKSKFMMFESQNKDLLFKDLTKCLFKVREGTTYKEFLGDKFYTVISSLKTCNPSDILQMCSFLEGK"}}, "tested_on": "Bcl10-YFP POLKADOTS formation", "assay": "Bcl10-YFP POLKADOTS formation in antigen-stimulated D10 T cells, fluorescence microscopy", "format": "cell-based, murine", "settings": "D10 T cells with conalbumin-loaded CH12 B cells (100 μg/ml), fixed after 20 min, >200 T cells counted, FIG. 4", "description": "D10-IL2 (henceforth referred to as D10) is an IL-2 dependent subclone of the CD4^+ T cell clone D10 (16), maintained as described (17). Primary T cell blasts were prepared by stimulation of spleen and lymph node cells with 100 μg/ml plate-bound anti-TCRP for 48 hr, with IL-2 added for the final 24 hr of stimulation. CH12H-2^k B cells and CHb H-2^b B cells (18) were maintained as described previously (17).\nMurine PKCθ was fused to a C-terminal linker (GRVELGR; SEQ ID NO:7) followed by GFP or CFP (19), modified by mutations that improve folding at 37° C. (20). Two I.M.A.G.E. expressed sequence tag (EST) clones encoding murine Bcl10 were purchased (2123397 and 3026026; ResGen). Clone 3026026 was used for PCR amplification of Bc 10, adding the C-terminal linker GR, which was then fused to the previously described modified YFP gene (17). […]\nThe inventors next examined whether formation of Bcl10 POLKADOTS is PKC-dependent (FIG. 4 and FIG. 5). […] Cells were fixed after 20 minutes and examined by fluorescence microscopy. For each group, >200 T cells were counted, and percentages with and without POLKADOTS were determined.\nCH12 B cells that had been pre-incubated with no antigen or with 250 μg/ml conalbumin protein were then added. Cells were fixed after 30 min and examined by fluorescence microscopy. […]", "data": [{"molecule": "B1", "values": [{"measurement": "cells with Bcl10-YFP POLKADOTS", "value": "over 80%"}]}]}
